{"source": "patent US7271245B2", "about": "“Methods and compositions for inhibition of metastasis” (The Scripps Research Institute, priority 2004, dated 2007)", "molecules": {"B1": {"name": "Bc-12: patient derived human scFv antibody against activated αvβ3 with RGD motif in CDR-H3; cDNA ATCC PTA-6303 (protein)", "scFv": "MAQVQLVQSGAEVKKPGASVKVSCKASGYTFSNYGITWVRQAPGQGLEWMGWINNGNTHYAQKFQGRVTMTTDTSTSTAYMELRSLRSDDTAVYYCARDPRGDDEPYWGQGTLVTVSSGGGGSGGGGSGGGGSEIVLTQSPLSLPVTLGQPASISCRSSQNLVYSDGNTYLSWFQQRPGQSPRRLIYKVSNRDSGVPDRFSGSGSGTDFTLKISRVEAEDIGVYYCMQGTHWPPRTFGQGTKVEIKRGLGGLVDYKDDDDK"}}, "tested_on": "integrin αvβ3", "assay": "Flow cytometry, scFv binding to human tumor cell panel", "method": "FIGS. 1A, 1B, 1C. Patient derived scFvs Bc-12 and Bc-15 recognize tumor cell integrin αvβ3 in a cation and activation dependent manner. Flow cytometric analyses in TBS with or without 1 mM Ca^2+, 1 mM Mg^2+, or 0.2 mM Mn^2+ as indicated. Binding of soluble scFv detected after incubation with anti-Flag M2 murine mAb followed by FITC-anti mouse F(ab′)2. (A) scFv binding to human melanoma cells (M21: αvβ3 plus other αv integrins) (M21-LIIb: αIIbβ3, no αv integrins) or lung adenocarcinoma cells (UCLA-P3: αv integrins, no β3 integrin). (B) scFv binding to M21 melanoma cells. (C) scFv binding to variants of MDA-MB 435 human breast cancer cells that lack (β^3−) or express αvβ3 either in a non-activated (β3WT, ParentCo) or activated form (β3D723R, Bone, Lung, and BMS metastatic cancer cells isolated from breast cancer patient blood).\nFlow cytometry. scFv binding to human tumor cells was analyzed by flow cytometry, initially with cloned scFv phage and then with purified scFv protein. Per sample, 2×10^5 tumor cells were blocked with goat serum and incubated either with scFv phage (2-5×10^10) (1 h at RT) followed by mouse anti-M13 mAb (Serotec) (30 min on ice) and goat FITC-anti mouse (Pierce) (30 min on ice), or with purified scFv (1.25 to 40 μg/ml, routinely 10 to 15 μg/ml) (45 min on ice), followed by mouse anti-FLAG mAb M2 (Sigma) (30 min on ice) and goat FITC-anti mouse. Binding/washing buffer was TBS with or without divalent cations (1 mM Ca^2+, 1 mM Mg^2+, 0.2 mM Mn^2+). Alternatively, tumor cells were washed in 10 ml of plasma (prepared freshly from human blood anticoagulated with 50 nM D-Phe-D-Pro-D-arginyl chloromethyl ketone, PPACK, Felding-Habermann et al., J. Biol. Chem. 271: 5892-5900, 1996), resuspended in plasma and then incubated sequentially, without washing, with purified scFv (45 min on ice), followed by anti-FLAG M2 (30 min on ice) and FITC-anti mouse (30 min on ice). All samples were counter stained with propidium iodide (PI) and analyzed on a Becton-Dickinson FACScan, with live gate set to exclude PI positive cells.\nTo generate therapeutic reagents that specifically react with activated αvβ3, a phage display library of single chain antibody fragments (scFv) was exploited. This library was derived from cancer patient blood lymphocyte cDNA libraries and allowed us to test the hypothesis that the expressed immune repertoire contains antibodies that recognize integrin αvβ3, and distinguish between its activated and non-activated forms. Mao et al., Proc. Natl. Acad. Sci. U.S.A 96: 6953-6958, 1999. A subtractive panning approach was designed based on variants of MDA-MB 435 human breast cancer cells. […] Apparently, these cells are selected during metastasis, as variant cells isolated from lung and bone metastases in immune deficient mice express constitutively activated αvβ3. To establish a cell population that uniformly expresses non-activated αvβ3, MDA-MB 435 parental cells were cloned by limiting dilution, and clones tested for αvβ3 functionality. […] A cell line, MDA-MB 435 Lung-Lung, was established which expressed αvβ3 in a constitutively activated form. This variant stems from a lung metastase of an immune deficient mouse whose mammary fat pad had been injected with parental MDA-MB 435 cells. Felding-Habermann et al., Proc. Natl. Acad. Sci. U.S.A 98: 1853-1858, 2001; Rolli et al., Proc. Natl. Acad. Sci. U.S.A 100: 9482-9487, 2003. To enrich for the ability to colonize the lung from the blood stream, the Lung variant was subsequently injected intravenously, and tumor cells cultured 3 weeks later from the excised lung. Parent Combo cells were used to subtract the scFv phage library to eliminate antibodies against antigens shared by the MDA-MB 435 cell variants. […]", "data": [{"molecule": "B1", "values": [{"measurement": "binding in the presence of Mn2+", "setting": "0.2 mM Mn^2+", "value": "greatly enhanced"}, {"measurement": "binding in the presence of Mg2+", "setting": "1 mM Mg^2+, M21 cells", "value": "at the same level as Ca^2+"}, {"measurement": "effect of Ca2+ on Mn2+ enhanced binding", "setting": "Ca^2+ combined with Mn^2+, M21 cells", "value": "reduced the enhancing effect of Mn^2+"}, {"measurement": "reactivity with human tumor cells that express or lack αvβ3", "setting": "M21, M21-LIIb, UCLA-P3 cells, flow cytometry", "value": "reacted only with cells expressing the αvβ3 heterodimer"}, {"measurement": "binding to M21-L cells", "setting": "M21-L cells (no αv integrins)", "value": "failed to bind"}, {"measurement": "cation requirement of binding", "setting": "TBS with or without divalent cations", "value": "showed a cation dependence"}, {"measurement": "binding in the presence of Ca2+", "setting": "physiological Ca^2+ levels (1 mM)", "value": "measurable"}, {"measurement": "reactivity with M21-L4 cells", "setting": "αvβ3 expression restored by transfection", "value": "did react"}]}]}
